According to patent US20170306013A1 (KYMAB, published 2017):
Positions count from the first letter of the chain named. One block for each binder: values may come before it.

Target: T1, KP1.2 peptide of the D2E2 loop of the Nav1.7 channel (human, not fully specified)
T1 construct: also called human NAV1.7 peptide
T1 peptide: H-VELFLADVEGC-NH2
Assay: DELFIA: KP1.2 peptide on streptavidin plate, purified antibody undiluted, Eu-labelled anti-human IgG, time-resolved fluorescence at 615 nm
Description: Four mice were immunised substantially as detailed in Table 6. The immunisations of Boost 6 each used 3 μg of KP1.2-KLH and 3 μg KP5.1-KLH, adjuvanted with IFA, CpG and Alum as set out in Table 6. A seventh booster immunisation was added, which consisted of 2 μg of KP1.2-KLH and 2 μg KP5.1-KLH, adjuvanted with IFA, CpG and Alum as set out in Table 6. Antibodies were isolated from these mice. 17 antibodies were identified using B-cell cloning technique as described above with labelled KP1.2 peptide (SEQ ID No:10). These 17 antibodies were further tested for binding to human NAV1.7 peptide using a DELFIA assay.
Streptavidin Even Coat 96 well plates (R&D Systems) were coated with 50 μL of 4 μg/ml KP1.2 peptide (SEQ ID No:10, synthesised by Mimotopes) diluted in 1×PBS (Sigma) for 1 hr at room temperature (RT). Plates were then washed 3× with 1×PBS+0.1% tween (200 μL/well). Plates were blocked with 200 μL PBS+1% BSA (Sigma) for 1 hr at RT. Plates were then washed again 3× with 1×PBS+0.1% tween (Sigma) (200 μL/well). Purified antibodies were then added non-diluted to washed plate and incubated for 1 hr at RT (50 μL/well). Plates were then washed 3× with 1×PBS+0.1% tween (200 μL/well). 50 μL/well of Dissociation-Enhanced Lanthanide Fluorescent Immunoassay (DELFIA) Europium-labelled Anti-Human IgG antibody (Perkin Elmer) diluted 1:500 in DELFIA assay buffer (Perkin Elmer) for 1 hr at RT. Plates were then washed 3× with DELFIA wash buffer (Perkin Elmer) (200 μL/well). 50 μL/well of DELFIA Enhancement Solution (Perkin Elmer, warmed to RT before use) was added to each well and incubated for 5 min at RT on shaker (Heidolph Titramax). […] Values were plotted using Prism (Graph Pad Prism).

B1: 30G01 (antibody, V domains shown)
VH: QVQLQESGPGLVKPSGTLSLTCAVSGGSISSSNWWSWVRQPPGKGLEWIGEIYHSGNTNYNPSLKSRVTISVDKSKNQFSLKLSSVTAADTAVYYCVRGYYYDSGTSWGYYYGMDVWGQGTTVTVSS
VL: DIQMTQSPSSLSASVGDRVTITCRASQGISNYLAWFQQRPGRAPKSLIYAASSLQRGVPSKFSGSGSGTDFTLTISSLQPEDFATYYCQQYNSYPITFGQGTRLEIK
binding result: no binding (tested: undiluted, concentration not given)

B3: 32A07 (antibody, V domains shown)
VH: QVQLVQSGPEVRNPGASVRVSCKASGYTFTDYALHWVRQAPGQRLEWMGWIIVGNGKTRYAQKFQGRVTITWETSASTAFMDLSSLRSEDTAVYYCARGFTMVRGAPYYDGLDVWGQGTTVTISS
VL: DIVMTQSPLSLPVTLGQPASISCRSSQSLIYSDGNTYLNWFQQRPGQSPRRLIYKVSNRDSGVPDRFSGSGSGTDFTLKISRVEAEDVGVYYCLQGTLWPITFGQGTRLEIK
binding result: no binding (tested: undiluted, concentration not given)

B5: 35E11 (antibody, V domains shown)
VH: B3 VH with P9A, N13K, R19K, L34I, F64L, F80Y, S84T, I123V
VL: DIVMTQSPLSLPVTPGEPASISCRSSQSLLYSTGYNYLDWYLQKPGLSPHLLIYLGSNRASGVPDRFSGSGSGTDFTLKISRVEAEDVGVYYCMQALQTPTFGGGTKVEIK
binding result: binds

B7: 35A06 (antibody, V domains shown)
VH: B3 VH with P9A, N13K, R19K, I123V
VL: B5 VL with H50Q
notes: Detected with anti-human IgG
binding result: binds

B8: 32E01 (antibody, V domains shown)
VH: B3 VH with P9A, N13K, R19K, L34I, A61S, F80Y, L112M, I123V
VL: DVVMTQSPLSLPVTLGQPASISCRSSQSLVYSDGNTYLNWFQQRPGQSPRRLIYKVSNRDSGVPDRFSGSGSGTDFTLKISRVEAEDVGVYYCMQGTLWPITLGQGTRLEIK
binding result: no binding (tested: undiluted, concentration not given)

B12: 27A03 (antibody, V domains shown)
VH: EVQLVESGGGLVKPGGSLRLSCAASGFTFSTYSMNWVRQAPGKGLEWVSSISRSSSYIYYADSVKGRFTISRDNAKNSLSLQMNSLRAEDTAVYYCARGAAAGTDYWGQGTLVTVSS
VL: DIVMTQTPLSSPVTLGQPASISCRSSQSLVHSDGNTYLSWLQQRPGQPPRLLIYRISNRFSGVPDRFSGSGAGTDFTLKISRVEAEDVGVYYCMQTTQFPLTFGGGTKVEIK
binding result: no binding (tested: undiluted, concentration not given)

B13: 35A10 (antibody, V domains shown)
VH: B12 VH
VL: B3 VL
binding result: no binding (tested: undiluted, concentration not given)

B14: 25A01 (antibody, V domains shown)
VH: QVQLVQSEAEVKKPGASVKVSCKASGYIFTTFGLSWVRQAPGQGLEWMGRITTNNGNTIYERRFQGRVTMTIDTSTTTAYMEMRSLTSDDTAVYYCARDGAPQDHWGQGTLVTVSS
VL: DIQMTQSPSSLSVSVGDRVIITCRASQDIRNSLAWFQQKPGKAPKSLIFAASSLQSGVPSKFRGSGFGTDFTLTITSLQPEDFATYYCQQYSSYPLTFGGGTKVEIK
notes: Detected with anti-human IgG
binding result: binds

Other lines, results leading:

binding result: binds
B2: 22G09 (antibody, V domains shown)
VH: B3 VH with P9A, N13K, R19K, L34I, A61S, S77T, F80Y, L112M, I123V
VL: B5 VL with S32T, H50Q, N58Y, S68T, T99A, V108L
notes: Detected with anti-human IgG

binding result: binds
B4: 32D04 (antibody, V domains shown)
VH: B3 VH
VL: B5 VL with T14S, H50Q, N58I, K79S, V90I
notes: Detected with anti-human IgG

binding result: binds
B6: 28B08 (antibody, V domains shown)
VH: B3 VH with P9A, N13K, R19K, M81V, S84N, I123V
VL: B5 VL with P12S, H50Q, V90F, T99A
notes: Detected with anti-human IgG; also called 28608

binding result: binds
B9: 28C11 (antibody, V domains shown)
VH: B3 VH with P9A, N13K, R19K, L34I, F80Y, I123V
VL: B5 VL with Y31F, H50Q
notes: Detected with anti-human IgG

binding result: binds
B10: 32B04 (antibody, V domains shown)
VH: QVQFVQSGAEVRKPGASVKVSCKASGYTFTDYAIHWVRQAPGQRLEWMGWIIVGNGKTRYSQKFQGRLTITWETSATTAYMDLSSLRSEDTAVYYCARGFTMVRGAPYYDGMDVWGQGTTVTVSS
VL: B5 VL with S32T, H50Q, N58Y, S68T, T99A, V108L
notes: Detected with anti-human IgG; also called 32604

binding result: binds
B11: 25C01 (antibody, V domains shown)
VH: EVHLVESGGGLVQPGGSLRLSCSASRFTFSTSAMTWVRQAPGKGLEWVSVISASGTTTYYGDSVKGRFTISRDNSKNTLHLQMNSLRAEDTAVYYCAKGGLAVPGPNYWGQGTLVTVSS
VL: DVVMTQSPLSLPVTLGQPASISCRSSQSLVFSDGNTYLTWFQQRPGQSPRRLIYKVSDRDSGVPDRFSGSGSGTDFTLQISRVEAEDVGLYYCMQGSHWPLTFGGGTKVEIK
notes: Detected with anti-human IgG

binding result: binds
B15: 25F08 (antibody, V domains shown)
VH: QVQLVQSGPEVKKPGASVKVSCQASGYTFTTYGINWVRQAPGQGLEWMGRISAYNGNTNYAQKFQGRVTMTTDTSTRTAYMEMSNLISDDTAVYYCARDGAPQDHWGQGTLITVSS
VL: B14 VL with V19I, I20T, R30S, R63S, F67S, T72N, L73F, T76S, S92N, Y94F
notes: Detected with anti-human IgG
